Measurements taken from US20240301052A1 (LANOVA MEDICINES DEVELOPMENT, published 2024).
Numbering of substitutions follows the chain as printed.

B1: xi62G10E4G8 hIgG1 (antibody, V domains shown)
VH: QVQLQQSGAEVVKPGASVKMSCKASGYTFPSYITHWVKQTPGQGLEWIGAIYPGNGDTSYIQKFKGKATLTADKSSSTAYMQLSSLTSEDSAVYYCARGTYGTSAWFTYWGQGTLVTVSA
VL: DIVLTQSPATLSVTPGDSVSLSCRARQNIGNNLYWYQQKSHESPRLLIKYASQSISGIPSRFSGSGSGTDFTLTINSVETEDFGVYFCQQSFSWPLTFGAGTKLELK
notes: chimeric, hIgG1
B2: xi63A11D5B4 hIgG1 (antibody, V domains shown)
VH: QVQLQQPGAELVKPGASVKMSCRTSGYTFITYNMHWVKQTPGQGREWIGAIYPGNGDTSYNQKFKGKATLTADKSSSTAYMQLNSLTSEDSAVYYCSISTIITTGAVDYWGQGTSVTVAS
VL: DIVMTQSHKFMSTSVGDRVSITCKASQDVGTAVAWYQQKAGQSPKLLIYWTSTRHTGVPDRFTGSGSGTDFTLIIRSLQSEDLADYFCQQYSRIPLTFGSGTKLEIK
notes: chimeric, hIgG1
B3: xi91C9F1 hIgG1 (antibody, V domains shown)
VH: EVQLQQSGPELVKPGTSVKISCKTSGFFFTEYIIHWVKQSHGRSLEWIGGIIPNNGVTNYKQNFRGKAALTADKSSNTAYMELRSLTSEDSAVYYCARWRNGYYSAMDSWGQGTSVTVSS
VL: DIVVTQSHKFMSTSLGDRVSITCTASQDVGTAVAWYQQKPGHSPKLLIYWASTRHTGVPERFTGSGSGTDFTLTITNVQSEDLADYFCQQYRTSPLTFGVGTKLELK
notes: chimeric, hIgG1
B4: xi30H9B8F9 hIgG1 (antibody, V domains shown)
VH: QVQLQQPGAELVKPGASVKMSCKTSGYTFTTNNMHWVKQTPGQGLEWIGAIYPGNGATAYNQKFKGKATLTADKSSSTAYMQLSSLTSEASAVYYCARGMYGHGAMDYWGQGTSVIVSS
VL: DIVMTQSHKFMSRSVGDRVRITCKASQDVGTAVAWYQQKPGQSPKLLIYWATTRHSGVPDRFTGSGSGTDFIFTISNVQSEDLADYFCQQYSSNPLTFGAGTKLELK
notes: chimeric, hIgG1
B5: 91C9F1.p1.z7 hIgG1 (antibody, V domains shown)
VH: QVQLVQSGAEVKKPGSSVKVSCKTSGFFFTEYIIHWVRQAPGQGLEWIGGIIPNNDVTNYKQNFRGRVTLTADKSTSTAYMELSSLRSEDTAVYYCARWRNAYYSAMDSWGQGTTVTVSS
VL: DIQVTQSPSSLSTSVGDRVTITCTASQDVGTAVAWYQQKPGKSPKLLIYWASTRHTGVPERFTGSGSGTDFTLTISSVQPEDVATYFCQQYRTSPLTFGVGTKVEIK
notes: humanized hIgG1
B6: 62G10E4G8.p3.z15 hIgG1 (antibody, V domains shown)
VH: B1 VH with Q5V, T40A, G56A, K67R, S76T, Q82E, T87R, S91T, A120S
VL: EIVLTQSPATLSVSPGERATLSCRARQNIGNNLYWYQQKPGQSPRLLIKYASQSISGIPSRFSGSGSGTDFTLTISSLQSEDFAVYFCQQSFSWPLTFGQGTKLEIK
notes: humanized hIgG1
B7: 63A11D5B4.p1.z9 hIgG1 (antibody, V domains shown)
VH: QVQLVQSGAEVVKPGASVKMSCKTSGYTFITYNMHWVRQAPGQGLEWIGAIYPGSGDTSYNQKFKGRVTLTADKSTSTAYMELSSLRSEDTAVYYCSISTIITTGAVDYWGQGTLVTVSS
VL: DIQMTQSPSSLSASVGDRVTITCKASQDVGTAVAWYQQKPGKVPKLLIYWTSTRHTGVPSRFSGSGSGTDFTLTISSLQPEDVATYYCQQYSRIPLTFGGGTKVEIK
notes: humanized hIgG1
B8: 30H9B8F9.p1.z5 hIgG1 (antibody, V domains shown)
VH: QVQLVQSGAEVKKPGASVKVSCKTSGYTFTTNNMHWVRQAPGQGLEWIGAIYPGSGATAYNQKFKGRVTMTADTSTSTVYMELSSLRSEDTAVYYCARGMYGHGAMDYWGQGTLVTVSS
VL: DIQLTQSPSFLSASVGDRVTITCKASQDVGTAVAWYQQKPGKAPKLLIYWATTRHSGVPSRFSGSGSGTEFTLTISSLQPEDFATYYCQQYSSNPLTFGQGTKLEIK
notes: humanized hIgG1

Biological target: T1, human SLC34A2 (human, UniProt O95436 1-690)
T1 construct: whole, on cells; also called human solute carrier 34 A2; NaPi2b
T1 sequence (looked up): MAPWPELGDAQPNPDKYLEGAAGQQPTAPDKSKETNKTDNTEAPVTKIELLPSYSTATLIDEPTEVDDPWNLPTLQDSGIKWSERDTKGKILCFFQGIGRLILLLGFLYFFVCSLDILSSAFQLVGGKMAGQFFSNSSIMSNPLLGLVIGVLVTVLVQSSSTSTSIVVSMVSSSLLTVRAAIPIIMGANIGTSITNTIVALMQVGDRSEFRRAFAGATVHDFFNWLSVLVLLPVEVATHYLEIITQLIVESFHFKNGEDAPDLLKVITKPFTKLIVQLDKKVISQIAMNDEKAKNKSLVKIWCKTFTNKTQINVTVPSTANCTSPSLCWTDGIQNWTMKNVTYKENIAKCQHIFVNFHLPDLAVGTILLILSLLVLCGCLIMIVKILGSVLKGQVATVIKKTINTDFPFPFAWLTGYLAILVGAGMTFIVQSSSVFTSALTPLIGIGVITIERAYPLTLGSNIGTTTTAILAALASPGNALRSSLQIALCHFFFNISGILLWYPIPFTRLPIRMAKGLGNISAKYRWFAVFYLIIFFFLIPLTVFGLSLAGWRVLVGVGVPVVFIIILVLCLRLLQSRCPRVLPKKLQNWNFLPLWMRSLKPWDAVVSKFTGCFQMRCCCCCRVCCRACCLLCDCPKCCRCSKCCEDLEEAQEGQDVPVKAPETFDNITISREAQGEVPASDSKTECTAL
Assay: FACS, HEK293/human SLC34A2 cells
Procedure: Briefly, OVCAR3 cells or HEK293 cells expressing human SLC34A2 were incubated with chimeric antibodies (from 200 nM, 4 folds dilution, 8 points). After incubation at 4° C. for 60 minutes, the cells were washed with FACS buffer twice, then stained with fluorescent conjugated secondary antibody at 4° C. for 30 minutes. After that the cells were washed twice and analyzed by flow cytometry.

EC50 | Top (MFI) | Binder
1.28 nM | 101000 MFI | B1
1.5 nM | 103000 MFI | B2
1.06 nM | 44800 MFI | B3
0.96 nM | 107000 MFI | B4

Biological target: T1, human SLC34A2
Assay: FACS, RMG-1 cells

EC50 | Binder
2.3 nM | B5
3.7 nM | B6
28.3 nM | B7
1.4 nM | B8

Biological target: T2, Rhesus SLC34A2 (Rhesus, UniProt F7HDA3 1-690)
T2 construct: whole, on cells
T2 sequence: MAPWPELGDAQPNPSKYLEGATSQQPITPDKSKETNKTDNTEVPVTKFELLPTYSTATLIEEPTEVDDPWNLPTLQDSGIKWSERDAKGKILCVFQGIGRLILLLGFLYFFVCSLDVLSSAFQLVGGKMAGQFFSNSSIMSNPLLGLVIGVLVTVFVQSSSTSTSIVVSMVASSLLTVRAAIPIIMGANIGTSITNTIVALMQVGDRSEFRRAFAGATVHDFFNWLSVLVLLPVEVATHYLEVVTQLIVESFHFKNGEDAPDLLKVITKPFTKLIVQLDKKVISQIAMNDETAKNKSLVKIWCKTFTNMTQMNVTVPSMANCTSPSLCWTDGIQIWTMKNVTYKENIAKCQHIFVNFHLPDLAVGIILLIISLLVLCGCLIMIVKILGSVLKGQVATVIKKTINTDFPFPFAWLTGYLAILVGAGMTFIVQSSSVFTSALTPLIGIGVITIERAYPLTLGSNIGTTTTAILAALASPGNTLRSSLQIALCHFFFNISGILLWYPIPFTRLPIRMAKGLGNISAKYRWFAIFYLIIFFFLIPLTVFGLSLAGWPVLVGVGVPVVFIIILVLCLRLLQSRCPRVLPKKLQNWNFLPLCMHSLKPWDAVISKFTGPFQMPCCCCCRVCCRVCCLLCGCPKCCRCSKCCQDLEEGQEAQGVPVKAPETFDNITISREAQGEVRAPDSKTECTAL
Assay: FACS, HEK293/Rhesus SLC34A2 cells

EC50 | Binder
4.2 nM | B5
1.4 nM | B6
1.6 nM | B7
0.7 nM | B8

Biological target: T1, human SLC34A2
Assay: FACS, OVCAR3 cells
Procedure, shortened: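 Flow cytometry binding: cells (OVCAR3, or HEK293 transfected with human SLC34A2) exposed 60 min at 4° C to chimeric hIgG1, 8-point 4-fold series starting 200 nM. Washed, stained 30 min at 4° C with fluorescent anti-human secondary, then analysed.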

EC50 | Top (MFI) | Binder
2.55 nM | 43000 MFI | B1
3.85 nM | 43000 MFI | B2
1.64 nM | 26400 MFI | B3
0.53 nM | 41900 MFI | B4

Biological target: T1, human SLC34A2
Assay: FACS, HEK293/human SLC34A2 cells
Remark: another data set of the same source
Procedure: The PTM-derisked VH chains were first tested for their impact on target binding. Cell based binding of PTM Abs on human SLC34A2 expressing cells were assessed using flow cytometry. Briefly, the HEK293/H_SLC34A2 cells were incubated with PTM Abs (from 200 nM, 4 folds dilution, 8 points). After incubation at 4° C. for 60 minutes, the cells were washed with FACS buffer twice, then stained with fluorescent conjugated secondary antibody at 4° C. for 30 minutes. After that the cells were washed twice and analyzed by flow cytometry.

EC50 | Top (MFI) | Binder
1.95 nM | 30300 MFI | B1
2.13 nM | 30400 MFI | B2
1.57 nM | 28600 MFI | B3
1.14 nM | 32200 MFI | B4

Biological target: T1, human SLC34A2
Assay: cell-based or functional assay

Binder | cytotoxicity EC50 | cytotoxicity Inhibition %
B1 | 0.42 nM | 97.2%
B2 | 0.66 nM | 99%
B3 | 0.8 nM | 97.4%
B4 | 0.84 nM | 91.7%

Biological target: T3, Cynomolgus SLC34A2 (Cynomolgus, UniProt A0A2K5UHY1 1-690)
T3 construct: whole, on cells; also called Cyno SLC34A2
T3 sequence: T2 sequence with P325H, I530V
Assay: FACS, cells expressing Cynomolgus SLC34A2

EC50 | Top (MFI) | Binder
3.33 nM | 4020 MFI | B1
5.33 nM | 3510 MFI | B2
9.11 nM | 2430 MFI | B3
1.08 nM | 4080 MFI | B4

Biological target: T3, Cynomolgus SLC34A2
Assay: FACS, cells expressing Cynomolgus SLC34A2
Remark: another data set of the same source

EC50 | Binder
45.7 nM | B5
1.63 nM | B6
4.45 nM | B7
0.97 nM | B8
